Data on one substance can be found in paper PMC10567836.

The target of this assay is CD45 on human peripheral blood mononuclear cells (human (endogenous in PBMC)) (UniProt P08575).
Chain of UniProt P08575 (P08575 26-1306): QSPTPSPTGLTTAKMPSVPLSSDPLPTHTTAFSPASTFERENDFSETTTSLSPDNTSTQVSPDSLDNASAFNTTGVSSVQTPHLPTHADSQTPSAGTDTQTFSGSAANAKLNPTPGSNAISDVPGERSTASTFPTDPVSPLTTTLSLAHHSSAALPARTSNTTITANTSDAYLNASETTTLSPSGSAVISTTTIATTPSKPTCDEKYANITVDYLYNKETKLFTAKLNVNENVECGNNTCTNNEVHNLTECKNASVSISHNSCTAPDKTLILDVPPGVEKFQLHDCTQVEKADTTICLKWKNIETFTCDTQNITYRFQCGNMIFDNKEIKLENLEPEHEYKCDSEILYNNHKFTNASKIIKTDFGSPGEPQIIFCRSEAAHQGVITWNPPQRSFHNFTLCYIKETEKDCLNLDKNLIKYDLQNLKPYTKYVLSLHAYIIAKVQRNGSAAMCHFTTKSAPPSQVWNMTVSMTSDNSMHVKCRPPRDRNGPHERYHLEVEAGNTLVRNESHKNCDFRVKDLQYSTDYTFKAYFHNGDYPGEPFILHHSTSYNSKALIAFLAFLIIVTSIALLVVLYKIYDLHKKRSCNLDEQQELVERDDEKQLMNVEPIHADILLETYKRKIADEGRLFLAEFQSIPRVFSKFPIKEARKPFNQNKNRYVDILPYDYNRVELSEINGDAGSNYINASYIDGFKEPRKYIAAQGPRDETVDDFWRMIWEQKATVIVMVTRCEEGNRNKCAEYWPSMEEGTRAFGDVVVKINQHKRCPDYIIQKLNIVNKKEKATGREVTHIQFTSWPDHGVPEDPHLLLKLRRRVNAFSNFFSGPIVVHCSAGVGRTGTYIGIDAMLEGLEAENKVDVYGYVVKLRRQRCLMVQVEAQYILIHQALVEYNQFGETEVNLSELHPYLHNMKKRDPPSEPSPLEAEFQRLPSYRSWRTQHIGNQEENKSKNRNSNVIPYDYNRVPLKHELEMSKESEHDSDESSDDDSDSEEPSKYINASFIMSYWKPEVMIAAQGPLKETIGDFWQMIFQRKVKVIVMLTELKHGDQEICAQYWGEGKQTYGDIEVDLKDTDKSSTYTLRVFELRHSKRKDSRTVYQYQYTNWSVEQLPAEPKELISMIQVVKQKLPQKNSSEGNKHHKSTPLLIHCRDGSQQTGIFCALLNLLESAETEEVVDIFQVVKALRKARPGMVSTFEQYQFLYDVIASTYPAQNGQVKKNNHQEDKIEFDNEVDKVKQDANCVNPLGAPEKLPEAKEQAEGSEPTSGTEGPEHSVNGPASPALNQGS

Substance “HAdV-D64 (Ad19a) protein E3/49K expressed on porcine L23 cells (natural protein)” returned a phosphorylated p56lck(p505) in CD4+ T cells of human PBMC stimulated for 48 h with L23-E3/49K cells (15–20% with L23-control or L23-UL11 cells), intracellular flow cytometry (% of CD4+ T cells) of 40.
